Test results as given in patent publication US20140335077A1, “Compositions and Methods for the Treatment of Cancer Using IGF-IR Antagonists and MAPK/ERK Inhibitors” (priority 2013, published 2014).

What was measured:
Format in all cases: cell-based
BE = test: PrestoBlue cell viability, anti-IGF-1R antibody with U0126, BE (melanoma); conditions: 48 h
Method: (§1) Cells were incubated in 96 well tissue culture plates and cell viability was measured by PrestoBlue cell viability assay (Invitrogen, CA, USA) according to manufacturer's instructions. Fluorescence was measured with excitation at 560 nm and emission at 590 nm. Cell number was calculated from standard curves of fluorescence measurements from known numbers of cells. Triplicate cultures were performed on all experiments.
(§2) The effects of anti-IGF-1R antibodies/MEK inhibitor combination treatment on viability of different types of tumor cells were investigated using PrestoBlue cell viability assay (Invitrogen, CA, USA) according to manufacturer's instructions. (Table 3).
(§3) Cells were incubated in serum free medium for 12 h followed by pretreatment for 60 min without or with 0.5, 1, 3 or 5 μM of the ERK inhibitor U0126, and then treated without or with 100 ng/ml anti-IGF-1R antibodies (Figitumumab or αIR-3 (Calbiochem, US). Cells were incubated in 96 well tissue culture plates for 48 hours and cell viability was measured by PrestoBlue cell viability assay. Fluorescence was measured with excitation at 560 nm and emission at 590 nm. Cell number was calculated from standard curves of fluorescence measurements from known numbers of cells. Triplicate cultures were performed on all experiments. The inhibition induced by anti-IGF-1R antibodies treated cells was calculated as percentage of untreated cells.

DFB = test: PrestoBlue cell viability, anti-IGF-1R antibody with U0126, DFB (melanoma); conditions: 48 h
Method: as §1, §2, §3

SKMel28 = test: PrestoBlue cell viability, anti-IGF-1R antibody with U0126, SKMel28 (melanoma); conditions: 48 h
Method: as §1, §2, §3

MCF7 = test: PrestoBlue cell viability, anti-IGF-1R antibody with U0126, MCF7 (breast carcinoma); conditions: 48 h
Method: as §1, §2, §3

ZR75-1 = test: PrestoBlue cell viability, anti-IGF-1R antibody with U0126, ZR75-1 (breast carcinoma); conditions: ZR75-1 cells, 48 h
Method: as §1, §2, §3

HEPG2 = test: PrestoBlue cell viability, anti-IGF-1R antibody with U0126, HEPG2 (hepatic carcinoma); conditions: 48 h
Method: as §1, §2, §3

Colo 205 = test: PrestoBlue cell viability, anti-IGF-1R antibody with U0126, Colo 205 (colon carcinoma); conditions: Colo 205 cells, 48 h
Method: as §1, §2, §3

PC-3 = test: PrestoBlue cell viability, anti-IGF-1R antibody with U0126, PC-3 (prostate carcinoma); conditions: PC-3 cells, 48 h
Method: as §1, §2, §3

DU-145 = test: PrestoBlue cell viability, anti-IGF-1R antibody with U0126, DU-145 (prostate carcinoma); conditions: DU-145 cells, 48 h
Method: as §1, §2, §3

H1703 = test: PrestoBlue cell viability, anti-IGF-1R antibody with U0126, H1703 (lung cancer); conditions: 48 h
Method: as §1, §2, §3

MIAPaCa2 = test: PrestoBlue cell viability, anti-IGF-1R antibody with U0126, MIAPaCa2 (pancreatic cancer); conditions: 48 h
Method: as §1, §2, §3

OCM-1 = test: PrestoBlue cell viability, anti-IGF-1R antibody with U0126, OCM-1 (uveal melanoma); conditions: OCM-1 cells, 48 h
Method: as §1, §2, §3

SK-OV-3 = test: PrestoBlue cell viability, anti-IGF-1R antibody with U0126, SK-OV-3 (ovarian carcinoma); conditions: SK-OV-3 cells, 48 h
Method: as §1, §2, §3

[1] = system: SKBR3 and IGF-1R knockout MEF cells (R−); test: Cell viability of negative control cells (PrestoBlue); conditions: 100 ng/ml, 48 h
Method: FIG. 1A-FIG. 1C. Effects of Figitumumab (CP-751871 (CP)) treatment on cell viability in ES cell lines. (A) Cell lysates were prepared from the indicated cell lines and analyzed by WB for total IGF-1R expression and GAPDH as a loading control. […] Data correspond to the mean±SEM from three independent experiments. […] (C) Indicated cells were treated without and with 100 ng/ml CP for 48 h in the absence (SFM) or presence of 10% fetal bovine serum (Serum) and cell viability assayed by PrestoBlue reagent. […] Data correspond to the mean±SEM from three independent experiments. Statistical analysis compared with SKBR3: *P<0.05, **P<0.01, **P<0.001.
as §1
IGF-1R expression was investigated in a panel of validated Ewing's sarcoma (ES) cell lines: SKES, RDES, CADO, A673 and SKNMC. Breast cancer cell line SKBR3, expressing low IGF-1R levels and IGF-1R knockout MEF cells (R−) were used as negative controls. […]

[2] = U0126 0 μM (60 min pretreatment)
[3] = U0126 0.5 μM (60 min pretreatment)
[4] = U0126 1 μM (60 min pretreatment)
[5] = U0126 3 μM (60 min pretreatment)
[6] = U0126 5 μM (60 min pretreatment)

B1: CP-751,871: anti-IGF-1R antibody figitumumab (Pfizer), IGF-1R antagonist (antibody, chains of the INN, looked up)
heavy: EVQLLESGGGLVQPGGSLRLSCTASGFTFSSYAMNWVRQAPGKGLEWVSAISGSGGTTFYADSVKGRFTISRDNSRTTLYLQMNSLRAEDTAVYYCAKDLGWSDSYYYYYGMDVWGQGTTVTVSSASTKGPSVFPLAPCSRSTSESTAALGCLVKDYFPEPVTVSWNSGALTSGVHTFPAVLQSSGLYSLSSVVTVPSSNFGTQTYTCNVDHKPSNTKVDKTVERKCCVECPPCPAPPVAGPSVFLFPPKPKDTLMISRTPEVTCVVVDVSHEDPEVQFNWYVDGVEVHNAKTKPREEQFNSTFRVVSVLTVVHQDWLNGKEYKCKVSNKGLPAPIEKTISKTKGQPREPQVYTLPPSREEMTKNQVSLTCLVKGFYPSDIAVEWESNGQPENNYKTTPPMLDSDGSFFLYSKLTVDKSRWQQGNVFSCSVMHEALHNHYTQKSLSLSPG
light: DIQMTQFPSSLSASVGDRVTITCRASQGIRNDLGWYQQKPGKAPKRLIYAASRLHRGVPSRFSGSGSGTEFTLTISSLQPEDFATYYCLQHNSYPCSFGQGTKLEIKRTVAAPSVFIFPPSDEQLKSGTASVVCLLNNFYPREAKVQWKVDNALQSGNSQESVTEQDSKDSTYSLSSTLTLSKADYEKHKVYACEVTHQGLSSPVTKSFNRGEC
Percentage inhibition of antibody treated cells (100 ng/ml) (BE; [2]): 22%
Percentage inhibition of antibody treated cells (100 ng/ml) (BE; [3]): 27%
Percentage inhibition of antibody treated cells (100 ng/ml) (BE; [4]): 32%
Percentage inhibition of antibody treated cells (100 ng/ml) (BE; [5]): 45%
Percentage inhibition of antibody treated cells (100 ng/ml) (BE; [6]): 55%
Percentage inhibition of antibody treated cells (100 ng/ml) (DFB; [2]): 15%
Percentage inhibition of antibody treated cells (100 ng/ml) (DFB; [3]): 17%
Percentage inhibition of antibody treated cells (100 ng/ml) (DFB; [4]): 24%
Percentage inhibition of antibody treated cells (100 ng/ml) (DFB; [5]): 45%
Percentage inhibition of antibody treated cells (100 ng/ml) (DFB; [6]): 55%
Percentage inhibition of antibody treated cells (100 ng/ml) (SKMel28; [2]): 5%
Percentage inhibition of antibody treated cells (100 ng/ml) (SKMel28; [3]): 15%
Percentage inhibition of antibody treated cells (100 ng/ml) (SKMel28; [4]): 17%
Percentage inhibition of antibody treated cells (100 ng/ml) (SKMel28; [5]): 25%
Percentage inhibition of antibody treated cells (100 ng/ml) (SKMel28; [6]): 29%
Percentage inhibition of antibody treated cells (100 ng/ml) (MCF7; [2]): 15%
Percentage inhibition of antibody treated cells (100 ng/ml) (MCF7; [3]): 18%
Percentage inhibition of antibody treated cells (100 ng/ml) (MCF7; [4]): 25%
Percentage inhibition of antibody treated cells (100 ng/ml) (MCF7; [5]): 18%
Percentage inhibition of antibody treated cells (100 ng/ml) (MCF7; [6]): 33%
Percentage inhibition of antibody treated cells (100 ng/ml) (ZR75-1; [2]): 5%
Percentage inhibition of antibody treated cells (100 ng/ml) (ZR75-1; [3]): 9%
Percentage inhibition of antibody treated cells (100 ng/ml) (ZR75-1; [4]): 12%
Percentage inhibition of antibody treated cells (100 ng/ml) (ZR75-1; [5]): 12%
Percentage inhibition of antibody treated cells (100 ng/ml) (ZR75-1; [6]): 15%
Percentage inhibition of antibody treated cells (100 ng/ml) (HEPG2; [2]): 7%
Percentage inhibition of antibody treated cells (100 ng/ml) (HEPG2; [3]): 11%
Percentage inhibition of antibody treated cells (100 ng/ml) (HEPG2; [4]): 22%
Percentage inhibition of antibody treated cells (100 ng/ml) (HEPG2; [5]): 27%
Percentage inhibition of antibody treated cells (100 ng/ml) (HEPG2; [6]): 37%
Percentage inhibition of antibody treated cells (100 ng/ml) (Colo 205; [2]): 21%
Percentage inhibition of antibody treated cells (100 ng/ml) (Colo 205; [3]): 28%
Percentage inhibition of antibody treated cells (100 ng/ml) (Colo 205; [4]): 34%
Percentage inhibition of antibody treated cells (100 ng/ml) (Colo 205; [5]): 45%
Percentage inhibition of antibody treated cells (100 ng/ml) (Colo 205; [6]): 67%
Percentage inhibition of antibody treated cells (100 ng/ml) (PC-3; [2]): 22%
Percentage inhibition of antibody treated cells (100 ng/ml) (PC-3; [3]): 24%
Percentage inhibition of antibody treated cells (100 ng/ml) (PC-3; [4]): 32%
Percentage inhibition of antibody treated cells (100 ng/ml) (PC-3; [5]): 45%
Percentage inhibition of antibody treated cells (100 ng/ml) (PC-3; [6]): 52%
Percentage inhibition of antibody treated cells (100 ng/ml) (DU-145; [2]): 18%
Percentage inhibition of antibody treated cells (100 ng/ml) (DU-145; [3]): 22%
Percentage inhibition of antibody treated cells (100 ng/ml) (DU-145; [4]): 34%
Percentage inhibition of antibody treated cells (100 ng/ml) (DU-145; [5]): 54%
Percentage inhibition of antibody treated cells (100 ng/ml) (DU-145; [6]): 77%
Percentage inhibition of antibody treated cells (100 ng/ml) (H1703; [2]): 10%
Percentage inhibition of antibody treated cells (100 ng/ml) (H1703; [3]): 15%
Percentage inhibition of antibody treated cells (100 ng/ml) (H1703; [4]): 25%
Percentage inhibition of antibody treated cells (100 ng/ml) (H1703; [5]): 28%
Percentage inhibition of antibody treated cells (100 ng/ml) (H1703; [6]): 32%
Percentage inhibition of antibody treated cells (100 ng/ml) (MIAPaCa2; [2]): 27%
Percentage inhibition of antibody treated cells (100 ng/ml) (MIAPaCa2; [3]): 35%
Percentage inhibition of antibody treated cells (100 ng/ml) (MIAPaCa2; [4]): 55%
Percentage inhibition of antibody treated cells (100 ng/ml) (MIAPaCa2; [5]): 78%
Percentage inhibition of antibody treated cells (100 ng/ml) (MIAPaCa2; [6]): 89%
Percentage inhibition of antibody treated cells (100 ng/ml) (OCM-1; [2]): 22%
Percentage inhibition of antibody treated cells (100 ng/ml) (OCM-1; [3]): 28%
Percentage inhibition of antibody treated cells (100 ng/ml) (OCM-1; [4]): 35%
Percentage inhibition of antibody treated cells (100 ng/ml) (OCM-1; [5]): 46%
Percentage inhibition of antibody treated cells (100 ng/ml) (OCM-1; [6]): 55%
Percentage inhibition of antibody treated cells (100 ng/ml) (SK-OV-3; [2]): 17%
Percentage inhibition of antibody treated cells (100 ng/ml) (SK-OV-3; [3]): 25%
Percentage inhibition of antibody treated cells (100 ng/ml) (SK-OV-3; [4]): 35%
Percentage inhibition of antibody treated cells (100 ng/ml) (SK-OV-3; [5]): 55%
Percentage inhibition of antibody treated cells (100 ng/ml) (SK-OV-3; [6]): 67%
Cell viability of negative control cells [1]: unaffected
